The conditions of series [1]: clinical development; cited from earlier work.
For series [2], the target named is T1, human CaSR wild type (hCaSR WT) (Homo sapiens, UniProt P41180, E1011Q).
T1 construct: mGlu5 signal peptide (N, cleaved yes); expressed in transfected cells
T1 sequence (P41180 20-1078 E1011Q): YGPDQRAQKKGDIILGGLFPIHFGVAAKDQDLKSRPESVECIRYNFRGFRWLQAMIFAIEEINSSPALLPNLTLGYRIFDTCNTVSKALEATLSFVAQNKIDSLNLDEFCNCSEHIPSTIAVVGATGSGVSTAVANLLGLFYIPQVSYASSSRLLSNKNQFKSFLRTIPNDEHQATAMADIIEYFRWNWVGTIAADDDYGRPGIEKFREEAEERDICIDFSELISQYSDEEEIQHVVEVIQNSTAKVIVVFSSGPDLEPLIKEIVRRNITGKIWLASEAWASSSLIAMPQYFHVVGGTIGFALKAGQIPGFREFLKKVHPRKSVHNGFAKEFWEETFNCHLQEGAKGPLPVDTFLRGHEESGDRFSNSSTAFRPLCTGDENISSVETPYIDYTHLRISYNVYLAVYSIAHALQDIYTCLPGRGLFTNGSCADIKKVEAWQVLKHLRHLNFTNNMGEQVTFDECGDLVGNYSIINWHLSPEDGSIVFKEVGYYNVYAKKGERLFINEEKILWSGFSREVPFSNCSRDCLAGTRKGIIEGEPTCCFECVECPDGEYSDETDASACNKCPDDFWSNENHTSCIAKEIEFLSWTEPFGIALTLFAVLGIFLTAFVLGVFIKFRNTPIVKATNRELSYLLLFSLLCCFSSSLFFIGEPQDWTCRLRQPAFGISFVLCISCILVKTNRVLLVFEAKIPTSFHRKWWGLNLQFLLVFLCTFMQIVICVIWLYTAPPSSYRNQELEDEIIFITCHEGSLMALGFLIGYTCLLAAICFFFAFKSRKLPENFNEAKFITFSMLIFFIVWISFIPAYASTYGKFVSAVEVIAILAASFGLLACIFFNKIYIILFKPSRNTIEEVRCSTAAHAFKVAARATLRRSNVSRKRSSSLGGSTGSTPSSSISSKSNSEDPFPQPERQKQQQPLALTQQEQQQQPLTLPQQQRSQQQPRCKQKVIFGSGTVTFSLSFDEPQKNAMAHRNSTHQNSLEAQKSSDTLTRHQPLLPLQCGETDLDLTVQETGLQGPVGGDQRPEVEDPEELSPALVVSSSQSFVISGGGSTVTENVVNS
Kind of series: Advanced phospho-ERK1/2 assay, HEK293 HA-hCaSR WT cells. The settings on record: 5 μM nanobody, EC20 Ca2+. Format: cell-based. The method, then: Nanobodies were successfully purified by immobilized metal ion affinity chromatography (IMAC) and size exclusion chromatography (SEC) prior to pharmacological characterization (FIG. 1). Each nanobody was initially screened for Gq/11 activity in the Cisbio IP1 accumulation assay as this is the primary signaling pathway of CaSR (Chavez-Abiega et al., 2020). Whole HEK293 HA-hCaSR WT cells were pre-incubated for 30 minutes at 37° C. with a fixed nanobody concentration (5 μM) prior to stimulation with the endogenous ligand Ca^2+. The well characterized positive allosteric modulator (PAM) chemical NPS R-568 and negative allosteric modulator (NAM) chemical NPS 2143 were added as reference compounds. […] No nanobodies with agonist or NAM activity were observed when all nanobodies screened in the absence or in the presence of EC80 Ca^2+, respectively (FIGS. 4A and 4B). […] Except for CaSR Nb5, the same nanobodies acted as PAMs when ERK1/2 phosphorylation was measured in the presence of EC20 Ca^2+ (FIG. 2B). Again, none of the nanobodies elicited an agonist or NAM response (FIGS. 5B and 5C).
Phosphorylation of ERK1/2 at T202 and Y204 was measured with the HTRF® Advanced Phospho-ERK1/2 assay (Cisbio Bioassays, Codolet, France). […] Upon excitation at 340 nm, emission at 615 and 665 nm was measured on an EnVision multimode plate reader (PerkinElmer, Waltham, Mass., USA). […]

For series [3], the target named is T2, extracellular Venus flytrap domain of CaSR (Homo sapiens, UniProt P41180).
T2 sequence (P41180 20-610 limits assumed): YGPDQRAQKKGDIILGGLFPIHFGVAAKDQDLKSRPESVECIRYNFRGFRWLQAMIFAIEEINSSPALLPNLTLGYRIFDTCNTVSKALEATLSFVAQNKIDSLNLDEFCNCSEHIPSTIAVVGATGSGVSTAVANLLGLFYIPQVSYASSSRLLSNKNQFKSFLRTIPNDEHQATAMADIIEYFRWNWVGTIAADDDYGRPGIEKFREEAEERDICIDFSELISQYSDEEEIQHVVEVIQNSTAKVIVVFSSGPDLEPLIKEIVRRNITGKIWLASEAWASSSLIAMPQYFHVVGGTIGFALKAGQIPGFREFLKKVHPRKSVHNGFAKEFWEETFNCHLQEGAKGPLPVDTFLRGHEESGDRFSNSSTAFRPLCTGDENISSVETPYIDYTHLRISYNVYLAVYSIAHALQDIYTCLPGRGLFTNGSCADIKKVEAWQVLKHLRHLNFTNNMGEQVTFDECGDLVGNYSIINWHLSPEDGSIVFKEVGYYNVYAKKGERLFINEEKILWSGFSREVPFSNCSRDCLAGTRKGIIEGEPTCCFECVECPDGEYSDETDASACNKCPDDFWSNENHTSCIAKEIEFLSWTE
The series can be described thus: Surface plasmon resonance on isolated purified Venus flytrap domain. Format: binding. A general note: SPR reads the build-up and loss of mass on a sensor chip optically.

Bounds are passed on as bounds.

This is an account of results in US20220411495A1, “POSITIVE ALLOSTERIC MODULATORS OF THE CALCIUM-SENSING RECEPTOR” (VIB VZW, priority 2019, published 2022).

Consider `COc1cccc([C@@H](C)NCCCc2ccccc2Cl)c1` [NPS R-568, reference compound], for which the Oral bioavailability in series [1] is less than 5%.

B1: Nb5: llama-derived CaSR-specific nanobody, weakest PAM, SEQ ID NO:8 (protein)
VHH: QVQLVESGGRLVQDGGSLRLSCAASGLTFSDYSMGWFRQVPGKEREFVAVIRRSNDSTYYADFVKGRFTISRDNAKNTVYLQMNSLQPEDTAVYSCAADRGGVGLTSAQTYAYWGQGTQVTVSS
modifications: CaSR Nb5
On to B1, for which the “PAM activity in phospho-ERK1/2 assay” value in series [2] was “could not be confirmed”.

B2: Nb4: llama-derived CaSR-specific nanobody acting as PAM, SEQ ID NO:5 (protein)
VHH: QVQLVESGGGLVQAGGSLRLSCAASGRTFSTYRMGWFRQGLGKEREFVAAITANGVRTFYTDSVKGRFTISRDNAKNTLYLQMNSLQPDDTAVYLCAARRKGIFTVQQAQDITDWDYWGQGTQVTVSS
modifications: CaSR Nb4
On to B2, for which, in series [3], the “Binding to isolated Venus flytrap domain (SPR)” value is given as “binds”. In addition, in series [3] (Ca2+ and/or L-Trp), the “Dependence of binding affinity on endogenous ligands (SPR)” value is “synergistically increases upon the presence of both ligands”.
